Results reported in paper PMC7284770, “Cloning and Expression of a Perilla frutescens Cytochrome P450 Enzyme Catalyzing the Hydroxylation of Phenylpropenes” (Plants, 2020).

Tested on: T1, C=CCc1cc(OC)c2c(c1)OCO2
T1 construct: full-length, 505 residues, 57 kD, untagged; microsomal fraction of Saccharomyces cerevisiae AH22, vector pGYR-SpeI co-expressing yeast NADPH-P450 reductase
Assay: GC-FID product assay, yeast microsomal fraction
Format: biochemical, Perilla frutescens
Details: 0.5 mM NADPH, 50 mM HEPES/NaOH pH 7.5, 30 °C, 15 min, myristicin 0.2 to 10 µM, co-expressed yeast NADPH-P450 reductase, product 6-allyl-4-methoxy-1,3-benzodioxol-5-ol
Text: GC-FID product assay, yeast microsomal fraction on Pf-49487 (CYP71D558) | We performed kinetic analyses of the Pf-49487 reaction using myristicin as substrate.

For “Pf-49487 (CYP71D558) (Perilla frutescens)”, the Km was 9.1 µM and the kcat was 15 min⁻¹.
